Reference: the supplement of paper PMC5998384

Tested on: HeLa Kyoto
Assay: melting temperature (median over replicates), in situ; higher = more thermally stable
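Also: HeLa Kyoto cells synchronized by double thymidine or nocodazole block, proteins quantified by TMT10plex mass spectrometry, three independent biological replicates.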

Sequence	melting temperature (cell cycle stage: G1/S) [°C]	melting temperature (cell cycle stage: mitosis) [°C]
MAEEMESSLEASFSSSGAVSGASGFLPPARSRIFKIIVIGDSNVGKTCLTYRFCAGRFPDRTEATIGVDFRERAVEIDGERIKIQLWDTAGQERFRKSMVQHYYRNVHAVVFVYDMTNMASFHSLPSWIEECKQHLLANDIPRILVGNKCDLRSAIQVPTDLAQKFADTHSMPLFETSAKNPNDNDHVEAIFMTLAHKLKSHKPLMLSQPPDNGIILKPEPKPAMTCWC [RAB33B]	54.3	55
MGSRWSSEEERQPLLGPGLGPGLGASWRSREAAAAALPAAVPGPGRVYGRRWLVLLLFSLLAFVQGLVWNTWGPIQNSARQAYGFSSWDIALLVLWGPIGFLPCFAFMWLLDKRGLRITVLLTSFLMVLGTGLRCIPISDLILKRRLIHGGQMLNGLAGPTVMNAAPFLSTTWFSADERATATAIASMLSYLGGACAFLVGPLVVPAPNGTSPLLAAESSRAHIKDRIEAVLYAEFGVVCLIFSATLAYFPPRPPLPPSVAAASQRLSYRRSVCRLLSNFRFLMIALAYAIPLGVFAGWSGVLDLILTPAHVSQVDAGWIGFWSIVGGCVVGIAMARFADFIRGMLKLILLLLFSGATLSSTWFTLTCLNSITHLPLTTVTLYASCILLGVFLNSSVPIFFELFVETVYPVPEGITCGVVTFLSNMFMGVLLFFLTFYHTELSWFNWCLPGSCLLSLLLILCFRESYDRLYLDVVVSV [DIRC2]	54.8	–
MGLELFLDLVSQPSRAVYIFAKKNGIPLELRTVDLVKGQHKSKEFLQINSLGKLPTLKDGDFILTESSAILIYLSCKYQTPDHWYPSDLQARARVHEYLGWHADCIRGTFGIPLWVQVLGPLIGVQVPEEKVERNRTAMDQALQWLEDKFLGDRPFLAGQQVTLADLMALEELMQPVALGYELFEGRPRLAAWRGRVEAFLGAELCQEAHSIILSILEQAAKKTLPTPSPEAYQAMLLRIARIP [GSTT2B]	54.9	55.1
MKPNFSLRLRIFNLNCWGIPYLSKHRADRMRRLGDFLNQESFDLALLEEVWSEQDFQYLRQKLSPTYPAAHHFRSGIIGSGLCVFSKHPIQELTQHIYTLNGYPYMIHHGDWFSGKAVGLLVLHLSGMVLNAYVTHLHAEYNRQKDIYLAHRVAQAWELAQFIHHTSKKADVVLLCGDLNMHPEDLGCCLLKEWTGLHDAYLETRDFKGSEEGNTMVPKNCYVSQQELKPFPFGVRIDYVLYKAVSGFYISCKSFETTTGFDPHRGTPLSDHEALMATLFVRHSPPQQNPSSTHGPAERSPLMCVLKEAWTELGLGMAQARWWATFASYVIGLGLLLLALLCVLAAGGGAGEAAILLWTPSVGLVLWAGAFYLFHVQEVNGLYRAQAELQHVLGRAREAQDLGPEPQPALLLGQQEGDRTKEQ [SMPD2]	–	55.7
MRWRTILLQYCFLLITCLLTALEAVPIDIDKTKVQNIHPVESAKIEPPDTGLYYDEYLKQVIDVLETDKHFREKLQKADIEEIKSGRLSKELDLVSHHVRTKLDELKRQEVGRLRMLIKAKLDSLQDIGMDHQALLKQFDHLNHLNPDKFESTDLDMLIKAATSDLEHYDKTRHEEFKKYEMMKEHERREYLKTLNEEKRKEEESKFEEMKKKHENHPKVNHPGSKDQLKEVWEETDGLDPNDFDPKTFFKLHDVNSDGFLDEQELEALFTKELEKVYDPKNEEDDMVEMEEERLRMREHVMNEVDTNKDRLVTLEEFLKATEKKEFLEPDSWETLDQQQFFTEEELKEYENIIALQENELKKKADELQKQKEELQRQHDQLEAQKLEYHQVIQQMEQKKLQQGIPPSGPAGELKFEPHI [NUCB2]	55.5	56.9
MWSRLVWLGLRAPLGGRQGFTSKADPQGSGRITAAVIEHLERLALVDFGSREAVARLEKAIAFADRLRAVDTDGVEPMESVLEDRCLYLRSDNVVEGNCADELLQNSHRVVEEYFVAPPGNISLPKLDEQEPFPHS [GATC]	51.7	–
MGDMANSSIEFHPKPQQQRDVPQAGGFGCTLAELRTLMELRGAEALQKIEEAYGDVSGLCRRLKTSPTEGLADNTNDLEKRRQIYGQNFIPPKQPKTFLQLVWEALQDVTLIILEVAAIVSLGLSFYAPPGEESEACGNVSGGAEDEGEAEAGWIEGAAILLSVICVVLVTAFNDWSKEKQFRGLQSRIEQEQKFTVIRNGQLLQVPVAALVVGDIAQVKYGDLLPADGVLIQANDLKIDESSLTGESDHVRKSADKDPMLLSGTHVMEGSGRMVVTAVGVNSQTGIIFTLLGAGGEEEEKKDKKGKQQDGAMESSQTKAKKQDGAVAMEMQPLKSAEGGEMEEREKKKANAPKKEKSVLQGKLTKLAVQIGKAGLVMSAITVIILVLYFVIETFVVEGRTWLAECTPVYVQYFVKFFIIGVTVLVVAVPEGLPLAVTISLAYSVKKMMKDNNLVRHLDACETMGNATAICSDKTGTLTTNRMTVVQSYLGDTHYKEIPAPSALTPKILDLLVHAISINSAYTTKILPPEKEGALPRQVGNKTECALLGFVLDLKRDFQPVREQIPEDKLYKVYTFNSVRKSMSTVIRMPDGGFRLFSKGASEILLKKCTNILNSNGELRGFRPRDRDDMVRKIIEPMACDGLRTICIAYRDFSAGQEPDWDNENEVVGDLTCIAVVGIEDPVRPEVPEAIRKCQRAGITVRMVTGDNINTARAIAAKCGIIQPGEDFLCLEGKEFNRRIRNEKGEIEQERLDKVWPKLRVLARSSPTDKHTLVKGIIDSTTGEQRQVVAVTGDGTNDGPALKKADVGFAMGIAGTDVAKEASDIILTDDNFTSIVKAVMWGRNVYDSISKFLQFQLTVNVVAVIVAFTGACITQDSPLKAVQMLWVNLIMDTFASLALATEPPTESLLLRKPYGRDKPLISRTMMKNILGHAVYQLAIIFTLLFVGELFFDIDSGRNAPLHSPPSEHYTIIFNTFVMMQLFNEINARKIHGERNVFDGIFSNPIFCTIVLGTFGIQIVIVQFGGKPFSCSPLSTEQWLWCLFVGVGELVWGQVIATIPTSQLKCLKEAGHGPGKDEMTDEELAEGEEEIDHAERELRRGQILWFRGLNRIQTQIRVVKAFRSSLYEGLEKPESKTSIHNFMATPEFLINDYTHNIPLIDDTDVDENEERLRAPPPPSPNQNNNAIDSGIYLTTHVTKSATSSVFSSSPGSPLHSVETSL [ATP2B3]	54.2	–
MQFMLLFSRQGKLRLQKWYVPLSDKEKKKITRELVQTVLARKPKMCSFLEWRDLKIVYKRYASLYFCCAIEDQDNELITLEIIHRYVELLDKYFGSVCELDIIFNFEKAYFILDEFLLGGEVQETSKKNVLKAIEQADLLQEEAETPRSVLEEIGLT [AP1S2]	–	49.7
MIEAEEQQPCKTDFYSELPKVELHAHLNGSISSHTMKKLIAQKPDLKIHDQMTVIDKGKKRTLEECFQMFQTIHQLTSSPEDILMVTKDVIKEFADDGVKYLELRSTPRRENATGMTKKTYVESILEGIKQSKQENLDIDVRYLIAVDRRGGPLVAKETVKLAEEFFLSTEGTVLGLDLSGDPTVGQAKDFLEPLLEAKKAGLKLALHLSEIPNQKKETQILLDLLPDRIGHGTFLNSGEGGSLDLVDFVRQHRIPLELCLTSNVKSQTVPSYDQHHFGFWYSIAHPSVICTDDKGVFATHLSQEYQLAAETFNLTQSQVWDLSYESINYIFASDSTRSELRKKWNHLKPRVLHI [ADAL]	57.1	57.2
MAAAELADTQLMLGVGLIEKDTNGEVLWVWCYPSTTATLRNLLLRKCCLTDENKLLHPFVFGQYRRTWFYITIIEVPDSSILKKVTHFSIVLTAKDFNPEKYAAFTRILCRMYLKHGSPVKMMESYIAVLTKGICQSEENGSFLSKDFDARKAYPAGSIKDIVSQFGMETVILHTALMLKKRIVVYHPKIEAVQEFTRTLPALVWHRQDWTILHSYVHLNADELEALQMCTGYVAGFVDLEVSNRPDLYDVFVNLAESEITIAPLAKEAMAMGKLHKEMGQLIVQSAEDPEKSESQVIQDIALKTREIFTNLAPFSEVSADGEKRVLNLEALKQKRFPPATENFLYHLAAAEQMLKI [FAM45BP]	50.6	50.5
MAEEEGPPVELRQRKKPKSSENKESAKEEKISDIPIPERAPKHVLFQRFAKIFIGCLAAVTSGMMYALYLSAYHERKFWFSNRQELEREITFQGDSAIYYSYYKDMLKAPSFERGVYELTHNNKTVSLKTINAVQQMSLYPELIASILYQATGSNEIIEPVYFYIGIVFGLQGIYVTALFVTSWLMSGTWLAGMLTVAWFVINRVDTTRIEYSIPLRENWALPYFACQIAALTGYLKSNLNTYGERFCYLLMSASTYTFMMMWEYSHYLLFLQAISLFLLDTFSVEQSDKVYEVYKIYIFSLFLGYLLQFENPALLVSPLLSLVAALMLAKCLQLNVKKGSFVAKIIKVINFYLVCTLTITLNIIMKMFVPHKENGHMLKFLEVKFGLNMTKNFTMNWLLCQESLQAPSQDFFLRLTQSSLLPFYILVLIICFLSMLQVIFRRINGKSLKETVTLEDGRIGERPEIIYHVIHTILLGSLAMVIEGLKYIWIPYVCMLAAFGVCSPELWMTLFKWLRLRTVHPILLALILSMAVPTIIGLSLWKEFFPRLMTELMELQEFYDPDTVELMTWIKRQAPVAAVFAGSPQLMGAIKLCTGWMVTSLPLYNDDDLLKRNENIYQIYSKRSAEDIYKILTSYKANYLIVEDAICNEVGPMRGCRVKDLLDIANGHMVCEEGDKLTYSKYGRFCHEVKINYSPYVNYFTRVYWNRSYFVYKINTVISFQS [DPY19L4]	54.5	56.9
MAAAAAGLGGGGAGPGPEAGDFLARYRLVSNKLKKRFLRKPNVAEAGEQFGQLGRELRAQECLPYAAWCQLAVARCQQALFHGPGEALALTEAARLFLRQERDARQRLVCPAAYGEPLQAAASALGAAVRLHLELGQPAAAAALCLELAAALRDLGQPAAAAGHFQRAAQLQLPQLPLAALQALGEAASCQLLARDYTGALAVFTRMQRLAREHGSHPVQSLPPPPPPAPQPGPGATPALPAALLPPNSGSAAPSPAALGAFSDVLVRCEVSRVLLLLLLQPPPAKLLPEHAQTLEKYSWEAFDSHGQESSGQLPEELFLLLQSLVMATHEKDTEAIKSLQVEMWPLLTAEQNHLLHLVLQETISPSGQGV [F8A1]	–	50.9
MLILTKTAGVFFKPSKRKVYEFLRSFNFHPGTLFLHKIVLGIETSCDDTAAAVVDETGNVLGEAIHSQTEVHLKTGGIVPPAAQQLHRENIQRIVQEALSASGVSPSDLSAIATTIKPGLALSLGVGLSFSLQLVGQLKKPFIPIHHMEAHALTIRLTNKVEFPFLVLLISGGHCLLALVQGVSDFLLLGKSLDIAPGDMLDKVARRLSLIKHPECSTMSGGKAIEHLAKQGNRFHFDIKPPLHHAKNCDFSFTGLQHVTDKIIMKKEKEEGIEKGQILSSAADIAATVQHTMACHLVKRTHRAILFCKQRDLLPQNNAVLVASGGVASNFYIRRALEILTNATQCTLLCPPPRLCTDNGIMIAWNGIERLRAGLGILHDIEGIRYEPKCPLGVDISKEVGEASIKVPQLKMEI [OSGEPL1]	53.6	51.1
MFSLPLNCSPDHIRRGSCWGRPQDLKIAAPAWNSKCHPGAGAAMARQHARTLWYDRPRYVFMEFCVEDSTDVHVLIEDHRIVFSCKNADGVELYNEIEFYAKVNSKPVWLSVDFDNWRDWEGDEEMELAHVEHYAELLKKVSTKRPPPAMDDLDDDSDSADDATSN [PTGES3L]	49.8	49.9
MNILPKKSWHVRNKDNVARVRRDEAQAREEEKERERRVLLAQQEARTEFLRKKARHQNSLPELEAAEAGAPGSGPVDLFRELLEEGKGVIRGNKEYKEEKRQEKERQEKALGILTYLGQSAAEAQTQPPWYQLPPGRGGPPPGPAPDEKIKSRLDPLREMQKHLGKKRQHGGDEGSRSRKEKEGSEKQRPKEPPSLDQLRAERLRREAAERSRAEALLARVQGRALQEGQPEEDETDDRRRRYNSQFNPQLARRPRQQDPHLTH [LENG1]	–	52.5
